Test system: Escherichia coli TOP10
Assay: shrunken log2 fold change of peptide-encoding DNA abundance (4.5 h post-induction vs induction); higher = less antimicrobial activity (less host growth inhibition)
Conditions: time post-induction: 4.5 h; library: site-saturation at positions 5, 18, 19, 20
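Also: peptides expressed intracellularly from a pBAD plasmid library in pooled LB shake-flask culture, induced with 0.3% L-arabinose, DNA abundance read by NGS, three biological replicates, DESeq2 with apeglm shrinkage.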

Sequence | shrunken log2 fold change
RRIRVRPPRLPRPRPRPSGCPRP | -0.194
RRIRNRPPRLPRPRPRPSRKPRP | -0.21
RRIRNRPPRLPRPRPRPCKYPRP | -1.14
RRIRMRPPRLPRPRPRPGSNPRP | 0.211
RRIRGRPPRLPRPRPRPCITPRP | 0.158
RRIRCRPPRLPRPRPRPLPNPRP | -0.0586
RRIRNRPPRLPRPRPRPEQYPRP | -0.153
RRIRCRPPRLPRPRPRPPHPPRP | 0.339
RRIRLRPPRLPRPRPRPEVVPRP | 0.0493
RRIRYRPPRLPRPRPRPQVTPRP | -0.00804
RRIRRRPPRLPRPRPRPVGIPRP | 0.12
RRIRGRPPRLPRPRPRPFHMPRP | -0.0599
RRIRWRPPRLPRPRPRPVLCPRP | 0.341
RRIRKRPPRLPRPRPRPKHDPRP | 0.133
RRIRGRPPRLPRPRPRPVPFPRP | 0.289
RRIRARPPRLPRPRPRPDTQPRP | 0.374
RRIRFRPPRLPRPRPRPEQPPRP | 0.0505
RRIRIRPPRLPRPRPRPSIEPRP | -0.407
RRIRVRPPRLPRPRPRPRMYPRP | -0.882
RRIRCRPPRLPRPRPRPAKLPRP | 0.0355
RRIRQRPPRLPRPRPRPTFIPRP | -0.0494
RRIRQRPPRLPRPRPRPAQHPRP | 0.189
RRIRERPPRLPRPRPRPCMNPRP | -0.341
RRIRIRPPRLPRPRPRPKSYPRP | -0.605
RRIRTRPPRLPRPRPRPLVPPRP | 0.193

Sequence | shrunken log2 fold change
RRIRARPPRLPRPRPRPFMHPRP | 0.229
RRIRARPPRLPRPRPRPISVPRP | -0.173
RRIRLRPPRLPRPRPRPTDRPRP | -0.00223
RRIRHRPPRLPRPRPRPNQRPRP | 0.333
RRIRIRPPRLPRPRPRPSDIPRP | -0.366
RRIRPRPPRLPRPRPRPRAQPRP | 0.33
RRIRFRPPRLPRPRPRPQAYPRP | -0.0572
RRIRFRPPRLPRPRPRPEYLPRP | -0.203
RRIRFRPPRLPRPRPRPWNKPRP | -0.722
RRIRDRPPRLPRPRPRPDLEPRP | 0.0526
RRIRCRPPRLPRPRPRPHPYPRP | -0.296
RRIRQRPPRLPRPRPRPMIMPRP | 0.0999
RRIRMRPPRLPRPRPRPGAFPRP | 0.611
RRIRQRPPRLPRPRPRPWLDPRP | 0.19
RRIRVRPPRLPRPRPRPTEVPRP | 0.0934
RRIRDRPPRLPRPRPRPQFAPRP | -0.0178
RRIRIRPPRLPRPRPRPTMQPRP | 0.0261
RRIRTRPPRLPRPRPRPPNAPRP | 0.535
RRIRPRPPRLPRPRPRPFVEPRP | -0.0706
RRIRCRPPRLPRPRPRPVFGPRP | -0.0365
RRIRVRPPRLPRPRPRPKLCPRP | -0.0766
RRIRVRPPRLPRPRPRPQEHPRP | -0.251
RRIRRRPPRLPRPRPRPQLFPRP | 2.21
RRIRGRPPRLPRPRPRPVFSPRP | 0.0314
RRIRNRPPRLPRPRPRPFALPRP | 0.814

Sequence | shrunken log2 fold change
RRIRRRPPRLPRPRPRPLWMPRP | 0.0635
RRIRRRPPRLPRPRPRPVYEPRP | 0.15
RRIRYRPPRLPRPRPRPSCEPRP | -0.586
RRIRYRPPRLPRPRPRPVYFPRP | -1.42
RRIRKRPPRLPRPRPRPACTPRP | 0.219
RRIRLRPPRLPRPRPRPVAHPRP | -0.454
RRIRCRPPRLPRPRPRPHIDPRP | -0.42
RRIRGRPPRLPRPRPRPHMLPRP | 0.142
RRIRARPPRLPRPRPRPPNMPRP | -0.0722
RRIRERPPRLPRPRPRPITHPRP | -0.527
RRIRVRPPRLPRPRPRPNKSPRP | -0.348
RRIRKRPPRLPRPRPRPSWGPRP | 0.00315
RRIRIRPPRLPRPRPRPHLNPRP | -0.852
RRIRVRPPRLPRPRPRPIHPPRP | 0.0943
RRIRVRPPRLPRPRPRPLDPPRP | -0.258
RRIRDRPPRLPRPRPRPEPAPRP | 0.883
RRIRQRPPRLPRPRPRPGRWPRP | 0.446
RRIRLRPPRLPRPRPRPSHAPRP | 0.212
RRIRQRPPRLPRPRPRPIMLPRP | -0.433
RRIRIRPPRLPRPRPRPTVFPRP | -0.237
RRIRYRPPRLPRPRPRPPPVPRP | 0.61
RRIRIRPPRLPRPRPRPLITPRP | -0.71
RRIRNRPPRLPRPRPRPFQAPRP | -0.0439
RRIRTRPPRLPRPRPRPCKHPRP | -0.0101
RRIRPRPPRLPRPRPRPDFIPRP | -0.233

Sequence | shrunken log2 fold change
RRIRYRPPRLPRPRPRPSEPPRP | -0.205
RRIRRRPPRLPRPRPRPYKSPRP | -0.239
RRIRCRPPRLPRPRPRPYCSPRP | -0.502
RRIRRRPPRLPRPRPRPYEVPRP | -0.0692
RRIRRRPPRLPRPRPRPHIVPRP | -0.0515
RRIRGRPPRLPRPRPRPSKHPRP | -0.0347
RRIRSRPPRLPRPRPRPANKPRP | -0.283
RRIRPRPPRLPRPRPRPERKPRP | 0.489
RRIRKRPPRLPRPRPRPLCRPRP | 0.392
RRIRIRPPRLPRPRPRPCNFPRP | -0.061
RRIRFRPPRLPRPRPRPFDAPRP | -0.0477
RRIRFRPPRLPRPRPRPGCHPRP | -0.141
RRIRWRPPRLPRPRPRPWCCPRP | -0.065
RRIRVRPPRLPRPRPRPNFNPRP | -0.143
RRIRCRPPRLPRPRPRPYPAPRP | -0.53
RRIRVRPPRLPRPRPRPVPTPRP | 0.149
RRIRFRPPRLPRPRPRPYTDPRP | -0.233
RRIRDRPPRLPRPRPRPWEVPRP | -0.0135
RRIRSRPPRLPRPRPRPLAPPRP | 0.223
RRIRFRPPRLPRPRPRPRPCPRP | 0.386
RRIRHRPPRLPRPRPRPVADPRP | -0.209
RRIRCRPPRLPRPRPRPQRSPRP | 2.66
RRIRSRPPRLPRPRPRPYVQPRP | -0.024
RRIRVRPPRLPRPRPRPDCMPRP | 0.116
RRIRDRPPRLPRPRPRPSMKPRP | -0.198

Sequence | shrunken log2 fold change
RRIRLRPPRLPRPRPRPPHWPRP | 0.38
RRIRNRPPRLPRPRPRPWYPPRP | -0.215
RRIRDRPPRLPRPRPRPCSPPRP | 0.0779
RRIRYRPPRLPRPRPRPRCVPRP | -0.276
RRIRNRPPRLPRPRPRPNKTPRP | -0.0415
RRIRVRPPRLPRPRPRPIGVPRP | -0.01
RRIRLRPPRLPRPRPRPGFKPRP | 0.0325
RRIRSRPPRLPRPRPRPSDSPRP | -0.612
RRIRRRPPRLPRPRPRPGNEPRP | -0.301
RRIRGRPPRLPRPRPRPFMCPRP | 0.224
RRIRHRPPRLPRPRPRPFLQPRP | 0.0325
RRIRYRPPRLPRPRPRPNQLPRP | -0.439
RRIRQRPPRLPRPRPRPCIVPRP | -0.747
RRIRPRPPRLPRPRPRPMRAPRP | 0.788
RRIRIRPPRLPRPRPRPQFVPRP | -0.229
RRIRTRPPRLPRPRPRPSTHPRP | -0.575
RRIRTRPPRLPRPRPRPAGQPRP | -0.109
RRIRMRPPRLPRPRPRPRDAPRP | 1.49
RRIRHRPPRLPRPRPRPNEWPRP | -0.0925
RRIRWRPPRLPRPRPRPHPDPRP | 0.0175
RRIRLRPPRLPRPRPRPTFCPRP | 0.0876
RRIRPRPPRLPRPRPRPNSLPRP | -0.272
RRIRHRPPRLPRPRPRPVIQPRP | -0.00152
RRIRWRPPRLPRPRPRPNADPRP | 0.466
RRIRRRPPRLPRPRPRPVEFPRP | 0.0107

From the supplement of paper PMC9112550, “Optimization of the antimicrobial peptide Bac7 by deep mutational scanning” (BMC Biology, 2022)
